The values that follow come from patent US20220251151A1.

Holding throughout (experiment): cell-based or functional assay
Test [1] deals with T1, human Kv1.6 potassium channel (α-subunit) (human), P17658.
T1 chain: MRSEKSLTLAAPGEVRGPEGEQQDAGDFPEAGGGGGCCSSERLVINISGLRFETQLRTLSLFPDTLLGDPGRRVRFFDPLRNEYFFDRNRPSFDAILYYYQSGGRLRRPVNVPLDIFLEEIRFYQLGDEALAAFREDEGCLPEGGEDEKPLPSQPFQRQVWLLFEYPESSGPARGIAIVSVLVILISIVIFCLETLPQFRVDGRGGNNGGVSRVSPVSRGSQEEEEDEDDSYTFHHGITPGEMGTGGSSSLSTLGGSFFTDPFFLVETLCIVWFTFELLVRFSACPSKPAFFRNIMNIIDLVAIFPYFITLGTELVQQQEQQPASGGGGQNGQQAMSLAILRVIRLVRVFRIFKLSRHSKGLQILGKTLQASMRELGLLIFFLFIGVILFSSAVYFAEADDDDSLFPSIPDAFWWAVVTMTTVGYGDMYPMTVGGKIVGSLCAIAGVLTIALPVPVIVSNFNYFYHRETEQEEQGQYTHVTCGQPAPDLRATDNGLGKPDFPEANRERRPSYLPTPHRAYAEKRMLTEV

Test [2] concerns the target T2, human Kv1.1 potassium channel (α-subunit) (human), Q09470.
T2 chain: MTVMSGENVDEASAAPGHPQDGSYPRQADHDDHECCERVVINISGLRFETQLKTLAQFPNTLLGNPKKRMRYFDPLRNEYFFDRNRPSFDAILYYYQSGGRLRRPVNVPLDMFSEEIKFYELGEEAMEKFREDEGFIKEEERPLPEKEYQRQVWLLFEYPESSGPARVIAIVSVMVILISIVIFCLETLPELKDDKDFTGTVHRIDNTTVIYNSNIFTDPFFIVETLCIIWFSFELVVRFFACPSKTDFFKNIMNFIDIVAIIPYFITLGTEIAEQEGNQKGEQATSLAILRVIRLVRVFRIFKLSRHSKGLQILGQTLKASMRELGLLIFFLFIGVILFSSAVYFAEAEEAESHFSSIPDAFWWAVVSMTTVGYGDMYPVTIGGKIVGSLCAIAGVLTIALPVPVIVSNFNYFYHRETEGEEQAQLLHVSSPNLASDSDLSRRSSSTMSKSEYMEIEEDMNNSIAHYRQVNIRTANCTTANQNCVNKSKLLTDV

Test [3] has as its target human Kv1.3 potassium channel (potassium voltage-gated channel subfamily A member 3, α-subunit) (human), P22001.
The target of test [4] is human Kv1.2 potassium channel (α-subunit) (human), P16389.
human Kv1.2 potassium channel (α-subunit) (human), P16389, sequence (P16389 whole entry): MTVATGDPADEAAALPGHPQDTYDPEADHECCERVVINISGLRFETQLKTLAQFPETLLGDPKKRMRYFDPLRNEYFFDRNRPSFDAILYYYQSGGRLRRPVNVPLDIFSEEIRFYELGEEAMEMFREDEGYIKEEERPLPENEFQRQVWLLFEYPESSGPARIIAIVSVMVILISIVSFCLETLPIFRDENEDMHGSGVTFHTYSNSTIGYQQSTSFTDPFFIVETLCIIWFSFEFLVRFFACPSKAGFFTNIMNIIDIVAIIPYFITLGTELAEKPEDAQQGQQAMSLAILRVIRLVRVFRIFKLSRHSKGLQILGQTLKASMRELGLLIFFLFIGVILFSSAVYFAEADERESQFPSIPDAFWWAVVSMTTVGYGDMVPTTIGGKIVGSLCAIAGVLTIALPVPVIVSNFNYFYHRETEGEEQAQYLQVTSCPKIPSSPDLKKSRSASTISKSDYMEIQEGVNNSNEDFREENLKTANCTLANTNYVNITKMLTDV

human Kv1.3 potassium channel (potassium voltage-gated channel subfamily A member 3, α-subunit) (human), P22001, sequence (P22001 whole entry): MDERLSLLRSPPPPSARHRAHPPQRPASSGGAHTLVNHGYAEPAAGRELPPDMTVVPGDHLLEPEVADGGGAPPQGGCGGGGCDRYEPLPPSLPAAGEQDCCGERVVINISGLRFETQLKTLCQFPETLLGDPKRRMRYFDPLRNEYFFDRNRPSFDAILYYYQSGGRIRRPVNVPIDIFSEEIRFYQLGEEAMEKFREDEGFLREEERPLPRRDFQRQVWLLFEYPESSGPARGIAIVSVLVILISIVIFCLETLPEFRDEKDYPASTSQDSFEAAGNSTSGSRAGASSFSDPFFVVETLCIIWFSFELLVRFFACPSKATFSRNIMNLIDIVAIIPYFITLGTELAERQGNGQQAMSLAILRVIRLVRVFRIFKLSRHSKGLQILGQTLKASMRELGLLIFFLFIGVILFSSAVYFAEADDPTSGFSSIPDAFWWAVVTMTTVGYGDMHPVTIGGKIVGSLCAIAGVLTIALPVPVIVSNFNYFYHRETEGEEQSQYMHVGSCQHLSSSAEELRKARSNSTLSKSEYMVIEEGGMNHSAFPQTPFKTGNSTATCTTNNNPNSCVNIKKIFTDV

In test [1], QMDMRCSASVECKQKCLKAIGSIFGKCMNKKCKCYPR (modifications not checked) [Compound 1 (PaT1)] displayed a Potency IC50 (patch clamp) above 3000 nM and a Selectivity Kv1.6/Kv1.3 above 7900. In test [2], the Potency IC50 (patch clamp) is above 3000 nM and the Selectivity Kv1.1/Kv1.3 is above 7900. In test [3], this molecule had a Potency IC50 (patch clamp) of 0.38 nM and an anti-CD3 PBMC/IL-2 IC50 of 0.09 nM. Also, in test [4], the Potency IC50 (patch clamp) was determined as 518 nM and the Selectivity Kv1.2/Kv1.3 is 1360.
